Assay results published in the supplement of paper PMC10567573.

B1: SMTNL2 (parent)
chain: ETAAGKGKGEARARLKRSQSFGVA
B2: P2RY14 (parent)
chain: KKIFKSHLKSSRNSTSVKKKSSRN

Variants of: B1
Assay: protein stability index of a GFP-peptide fusion (GPS, HEK-293T) (PSI 1-6); higher = more stable
Settings: c terminus: a fixed tail appended
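Note: lentivirally expressed fusions sorted by FACS into six bins by GFP to DsRed ratio, PSI derived from sequencing read proportions per bin multiplied by bin number.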

Protein stability index: each site, then its substitutions
R14: Q 4.66, T 4.4, K 4.85, P 5.19, W 4.03, M 4.27, G 4.9, H 4.69, N 4.68, E 4.88, C 4.53, S 4.41, A 3.79
Q19: C 4.09, W 4.33, K 4.46, A 4.35, E 5.15, V 3.96, H 4.81, D 4.61, Y 3.89, L 4.08, R 4.3, M 4.18, I 3.27, T 4.68, F 3.67, G 4.38
R12: N 3.82, T 3.76, V 4.83, Q 4.61, K 4.88, I 3.95, A 4.76, S 4.92, F 3.9, L 4.24, E 5.03, M 3.94, D 4.79, G 5.1, P 4.67, W 3.14, Y 4.28, C 4.38
G7: K 4.62, W 3.03, R 4.11, E 4.71, L 4.26, H 4.18, A 4.28, P 4.08, N 4.02, S 4.22, F 3.87
A13: P 4.7, M 4.05, F 3.9, K 4.86, I 4.54, N 4.55, H 4.83, W 3.67, T 4.61, L 4.11, C 4.38, D 4.4, Y 4.3, R 4.05, V 3.82
G22: Q 4.36, K 4.81, E 5.65, V 4.32, H 4.14, S 5.13, F 2.84, W 2.81, I 3.9, R 4.28, M 3.86, C 4.84, N 4.76
G9: H 4.58, Q 4.51, R 4.27, L 3.6, E 4.96, M 3.95, A 4.12, I 4.37, S 5.08
S18: R 4.26, H 4.02, T 4.22, W 3.64, A 4.22, G 4.6, P 4.01, F 3.65, E 4.36, I 3.52, Y 2.89, V 3.94
A24: L 4.49, N 5.09, F 3.97, R 4.52, Q 4.51, T 4.23, C 4.28, I 3.75, G 4.6, P 4.88, M 4.29
K16: H 4, T 4.39, V 3.9, E 4.57, Y 3.74, D 4.62, G 4.67, I 3.35, A 4, F 3.89, W 2.59, P 4.03, S 4.35
K6: P 4.59, V 4.23, R 4.39, T 4.78, Y 3.9, S 4.62, E 5.05, H 4.53, G 3.58, C 2.43
E1: T 3.72, Q 4.03, L 4.18, V 3.33, G 4.54, W 3.63, Y 3, F 3.21, N 4.35, H 3.94, A 3.91, D 4.49, C 4.05
R17: K 4.6, L 3.76, Q 4.67, S 4.18, C 3.62, F 3.19, I 3.82, P 3.23, E 4.65, Y 3.81, N 4.54, A 4.14, W 2.95
S20: A 4.56, M 4.3, V 4.27, G 3.76, F 4.09, N 4.3, Q 4.08, I 3.5, E 4.87, D 4.58, R 4.09, C 4.51, T 4.77, L 4.02
K8: H 4.44, F 4.29, A 5.13, R 4.38, Q 5.13, E 4.89, T 4.08, W 3.87, N 4.8, Y 4.2, L 4, D 5.01, S 4.43, V 4.62, G 3.96, P 4.54, C 4.17
A4: V 3.99, M 4.71, W 3.98, C 4.46, K 4.81, P 4.54, L 3.81, I 4.24, Q 4.78, G 4.29, T 4.67, Y 4.77, N 4.13
E10: Q 3.9, Y 3.35, W 3.4, T 4.38, H 4.44, S 4.46, D 4.38, C 3.51, F 3.7, K 4.29, L 3.79, I 3.96, P 4.27, V 4.27
G5: S 4.24, R 4.42, V 4.34, E 4.79, H 4.77, L 4.56, A 4.94, K 4.8, F 4.04
A3: E 4.94, F 4.28, P 4.88, N 4.74, I 4.13, V 4.33, S 4.28, M 4.5, C 3.86, Q 4.56, Y 3.74, G 4.54
A11: F 3.71, K 4.74, G 4.61, I 3.69, N 4.56, D 4.8, E 4.69, R 4.73, Q 4.19, S 4.58, T 4.62, H 4.49
L15: N 4.89, W 4.29, V 4.76, P 5.01, A 4.46, G 4.49, S 4.76, F 3.69, E 4.7, K 4.77, R 4.49, C 4.24, Q 4.91, M 3.95
F21: V 5.25, H 4.96, T 5.16, G 4.08, Q 5.2, M 4.3, L 5.02, W 3.22, R 4.23, C 5.02, N 5, D 5.51
T2: K 4.58, L 4.36, P 4.92, D 5.39, V 4.79, S 4.66, W 3.07, G 4.71, Y 3.83, E 4.83, H 4.46
V23: E 5.35, I 4.39, R 4.89, W 3.96, Y 4.11, L 3.68, D 4.84, T 4.75, F 3.98, H 5.02, P 4.62, G 5.23

Variants of: B2
Assay: as above
Settings: c terminus: a fixed tail appended

Protein stability index of substitutions, site by site:
L8: Y 3.59
S16: C 3.38
S11: I 3.98, G 4.26
N13: E 3.55, W 3.41
K1: N 4.4
S21: H 4.22, I 3.98, C 3.84, Q 3.88, G 3.8, R 4.27
K9: R 4.27
R12: H 3.93
T15: Q 4.09, R 4.05
S22: D 4, I 5.05
S6: P 3.69
K2: N 4.13, C 3.88
K20: F 2.75, P 3.83
F4: N 4.49
I3: G 4.28
K5: H 4.33
